B1: KCNAB2 (parent)
chain: YVDVVFANRPDPNTPMEETVRAMT
B2: PKD2L1 (parent)
chain: TLARCAKDILGFAVMFFIVFFAYA

Variants of: B1
Test: protein stability index of a GFP-peptide fusion (GPS, HEK-293T) (PSI 1-6); higher = more stable
Settings: c terminus: a fixed tail appended
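Also: lentivirally expressed fusions sorted by FACS into six bins by GFP to DsRed ratio, PSI derived from sequencing read proportions per bin multiplied by bin number.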

Protein stability index: each site, then its substitutions
M16: C 1.82; I 1.64
N8: W 2.85; Y 2.88
D11: E 1.6; P 1.67; W 1.94; H 2.28; L 1.89; R 1.47; V 2.53; T 2.76; Y 2.42; G 2.19; S 1.39; A 2.79; M 2.04; K 2.05; C 1.77; I 2.2; F 2.46; Q 2.5; N 1.67
M23: E 1.86; R 2.81; F 2.03; Q 1.41; Y 2.13; W 2.06; C 2.04; K 1.82; I 1.82; S 1.58; V 1.78; G 1.56; D 1.61; N 1.8; A 2.16; L 2.57; P 2.14; H 1.66
R21: F 2.78; S 1.77; N 2.33; L 2.64; Q 2.18; V 1.58; P 2.1; K 2.35; E 2.27; D 1.56; H 2.22; W 2.27; G 2.37; T 1.96; I 2.15; M 1.56; Y 1.87; C 1.5; A 1.84
T24: R 1.78; E 1.86; Y 2.46; V 1.47; G 1.35; D 1.46; S 1.88; M 2.18; N 1.5; F 3.03; K 1.82; H 1.74; W 2.72; Q 2.09; P 2.24; I 1.78; L 1.8; C 1.98
V20: P 1.86; S 2.06; C 1.99; E 1.76; L 2.58; G 2.07; H 1.81; D 1.76; R 1.82; Q 1.82; T 1.81; M 1.71; F 1.64; A 1.82; W 2.74; Y 1.8; I 1.87; N 1.92; K 1.59
T19: S 1.93; K 2.41; G 1.9; A 1.86; V 2.01; C 1.46; L 1.89; P 1.61; H 2.1; I 1.85; F 1.66; D 2.07; Q 1.9; W 1.85; M 1.79; N 2; E 1.71; Y 1.62; R 1.66
A22: F 2.28; L 1.98; Q 1.85; W 2.49; D 2.67; V 2.29; T 1.33; Y 1.73; N 2.13; I 1.72; H 2.27; K 2.08; P 1.69; M 2.32; E 1.6; G 1.74; C 2.26; R 1.89; S 1.76

Variants of: B2
Test: as above
Settings: c terminus: a fixed tail appended

Protein stability index, by site and new letter:
L2: T 4.12; W 1.67; C 3.44; A 3.81; N 2.5; Y 2.51; Q 3.4; V 1.24; S 2.73; K 1.84; P 3.29; R 3.68; H 2.35; G 3.03; D 3.71; M 3.8; E 2.8
T1: H 2.29; C 2.98; K 3.97; P 2.03; I 2; R 1.72; V 2.81; F 3.18; L 2; D 2.96; S 2.19; M 4.2; A 2.36; W 1.62; N 2.67

From the supplement of paper PMC10567573
